Source: the nanobody polyreactivity screen of Harvey et al. (2022)

Assay: yeast display, Sf9 membrane polyspecificity reagent, FACS + sequencing; frameworks hold sequencing errors
Method in brief: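 Sorting gates, low and high (top ~1%), were placed on anti-HA fluorescence to track expression and on streptavidin fluorescence to track reagent binding. A clone's polyreactivity label is taken from the gate it came out of. The reagent was 10% biotinylated, detergent-solubilized Sf9 membrane, applied for 1 hour at 4 °C to galactose-induced yeast display cells.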

| Sequence | polyreactivity (PSR sort gate) |
| --- | --- |
| QVQLVESGGGLVQAGGSLRLSCAPSGRTFWAYAMGWYRQAPGKERELVAAITTSGGSTNYADSVKGRFTISRDNAKNTVYLQMNSLKPEDTAVYYCNADPTYHVVNGVGYWGQGTQVTESS | low polyreactivity |
| QVQLVESGGGLVQAGGSLRLSCAPSGRTFYPNVMGWSRQAPGKERELVAAITSGGSTYYADSVKGRFTISRDNAKNTVYLQMNSLKPEDTAVYYCAVAYAGGGSRKYDYWGQGTQVTVSS | low polyreactivity |
| QVQLVESGGGLVQAGGSLRLSCAPSGRTLFTNAMGWYRQAPGKERELVAAISIGGTTYYADSVKGRFTISRDNAKNTVYLQMNSLKPEDTAVYYCNKVRRFHSEYGYWGQGTQVTVSS | high polyreactivity |
| QVQLVESGGGLVQAGGSLRLSCAPSGRTLRGYAMGWYRQAPGKEREFVAAISSRGGSTYYADSVKGRFTISRDNAKNTVYLQMHSLKPEDTAVYYCAALRPLFATSHARDYWGQGTQVTVSS | high polyreactivity |
| QVQLVESGGGLVQAGGSLRLSCAPSGRTLYNYAMGWTRQAPGKERELVASITWSGGSTYYADSVKGRFTISRDNAKNTVYLQMTSLKPEDTAVYYCAAESSPGTFVRYGYRRYYYWGQGTQVTVSS | low polyreactivity |
| QVQLVESGGGLVQAGGSLRLSCAPSGRTYTVYTMGWYRQAPGKERELVAVISTGGRTYYADSVKGRFTISRDNAKNTVYLQMNSLKPEDTAVYYCAAKFTREYYWGQGTEVTVSS | high polyreactivity |
| QVQLVESGGGLVQAGGSLRLSCAPSGSIFHYNAMGWYRQAPGKEREFVAVISKSSGSTFYADSVKGRFTISRDNAKNTVYLLMISLKPEDTAVYYCNRVTKRYPNIGNYWGQGTQVSVSS | high polyreactivity |
| QVQLVESGGGLVQAGGSLRLSCAPSGSIFPDYAMGWYRHAPGKQRELVAAIRSGSRTYYADSVKGRFTISRDNAKITVYLQMNSLNPEDTAVYYCATTYGTPRYDYWGQGTQVTVSS | high polyreactivity |
| QVQLVESGGGLVQAGGSLRLSCAPSGSIFPYYAMGWYRQAPGKERELVAVITTSGGRTYYADSVKGRFTISRDNAKNTVYLQMNSLKPEDTAVYYCATDVRQGSGWRYYYWGQGTQVTVSS | high polyreactivity |
| QVQLVESGGGLVQAGGSLRLSCAPSGSIFRVYAMGWYRQAPGKERELVAAITIGTSTNYADSVKGRFTISRDNAKNTVYLQMNSLKPEDTAVYYCAAEWSYNLDSIASSPTSYDYWGQGTQVTVSS | low polyreactivity |
| QVQLVESGGGLVQAGGSLRLSCAPSGSISQTYAMGWYRQAPGKERELVAAISSSGASTYYADSVKGRFTISRDNAKNTVYLQMNSLKPEDTAVYYCAALGRYRYIYNYWGQGTQVTVSS | high polyreactivity |
| QVQLVESGGGLVQAGGSLRLSCAPSGSTFNYNAMVWYRQAPGKERELVARISWRGGSTYYADSVKGRFTISRDNAKNTVYLQMNSLKPEATAVYYCAATRYWYGSTYDYWGQGTQVTVSS | high polyreactivity |
| QVQLVESGGGLVQAGGSLRLSCAPSGSTFPQYAMGWYRQAPGKERELVADISSGVSTNYADSVKGRFTISRDNAKNTVYLLMNSLKPEDTAVYYCAAQAYVEGVYRYDYWGQGTQVTVSS | low polyreactivity |
| QVQLVESGGGLVQAGGSLRLSCAPSGSTFPWNAMGWYRQAPGKERELVAAIRTGGGRTYYADSVKGRFTISRDNAKNTVYLQMNSLKPEDTAVYYCNAYFTYWSQLYYWGQGTQVTVSS | high polyreactivity |
| QVQLVESGGGLVQAGGSLRLSCAPSGSTFRFYAMGWYRQAPGKERELVAVISSAGSTNYADSVKGRFTISRDNAQNTVYLQMNSLKPEDTAVYYCAAYRRYSIYNYWGQGTQVTVSS | high polyreactivity |
| QVQLVESGGGLVQAGGSLRLSCAPSGSTFTSYAMGWYRQAPGKDRELVAAITYGSGTTYADSVKGRFTISRDNAKNTVYLQMNSLKPEDTAVYYCAADFYYPVLGHGFPTYEYDYWGQGTQVTVSS | low polyreactivity |
| QVQLVESGGGLVQAGGSLRLSCAPSGSTFTSYAMGWYRQAPGKERELVAAITYGSGTTYADSVKGRFTISRDNAKNTVYLQMNSLKPEDTAVYYCAADFYYPVLGHGFPTYEYDYWGQGTQVTVSS | low polyreactivity |
| QVQLVESGGGLVQAGGSLRLSCAPSGSTFVRYAMGWYRQAPGKESELVAAISKSGVSTYYADSVKGRFTISRDNAKNTVNLQMNSLKPEDTAVYYCAAYARGVRRYRRYDYWGPGTQVTVSS | high polyreactivity |
| QVQLVESGGGLVQAGGSLRLSCAPSGSTFVYYAMGWYRPAPGKERELVAAINRSGTRTYYADSVKGRFSISRDNAKNTVYLQMNSLKPEDTAVYYCDKAVQGKYGYWGQGTQVTVSS | high polyreactivity |
| QVQLVESGGGLVQAGGSLRLSCAPSGSTFYKNAMGWYRQAPWKERELVAGISRRGGRTYYADSVKGRFSISRDNAKNTVYLQMNSLKPEDTAVYYCNARLLSGPGYDYWGQGTQVTVSS | low polyreactivity |
| QVQLVESGGGLVQAGGSLRLSCAPSGSTFYYYAMGWYRQAPGKERELVAAITYRGGTYYADSVKGRFTISRDNAKNTVYLQMNSLKPEDTAVYYCAAPLSRIMDYWGQGTQVTVSS | high polyreactivity |
| QVQLVESGGGLVQAGGSLRLSCAPSGSTLNVYAMGWYRQAPGKERELVAAIRWSGDTYYADSVKGRFTISRDNAKNTVYLQMNSLKPEDTAVYYCAADPGTTYWQRFDYWGQGTQVTVSS | low polyreactivity |
| QVQLVESGGGLVQAGGSLRLSCAPSGYIFPFNALGGYRQAPGKERELVAAINNGGRTYYADSVKGRFTISRDNAKNTVFLQMHSLKPEDTAVDSCAAGSKSDMDWGQGTQVTVSS | low polyreactivity |
| QVQLVESGGGLVQAGGSLRLSCAPSGYTFARYAMGWSRQAPGKDRELVAAITSSGGSTYYADSVKGRFTSSRDNAKNTVYLQMNSLKPEDTAVYYCNARGFQKSDPRGYLILNYWGQGTQVTVSS | high polyreactivity |
| QVQLVESGGGLVQAGGSLRLSCAPSRRIFRSYAMGWYSQAPGKERELVAAISSRGSTYYADSVKGRFTISRDNEKNTVFLQMNSLKPEDTAVYYCAVHLWVYPLKREFYWGQGTQVTVSS | high polyreactivity |
| QVQLVESGGGLVQAGGSLRLSCASSGFAYSYYAMGWYRQAPGKEREFVASIDWSGGSTYYADSVKGRITISRDNAMNTVYLQMNSLKPEATAVYYCAAELDYFPGYDSWGQGTQVTVSS | low polyreactivity |
| QVQLVESGGGLVQAGGSLRLSCASSGFIFPWNAMGWYRQAPGKERELVADISTGTSRTYADSVKGRFTISRDNAKNTVYFQMNSLKPEDTAVYYFNKAHNYKYDWGQGTQVTVSS | low polyreactivity |
| QVQLVESGGGLVQAGGSLRLSCASSGFIFYYNAMGWYRQAPVKERELVAAISYGGGSTYYADSVKGRFTISRDNAKNTVYLQMNSLKPEDTAVYYCSARVYWWNASLAGNYWGQGTQVTVSW | low polyreactivity |
| QVQLVESGGGLVQAGGSLRLSCASSGFSFDYYVMGWYRQAPGKEMELVASNRSRGASTHYADSVKGRFTISRDNAKNTVYLQMNRLKTEDTAVYYCAKGGGYRRAARSFGGGDYWGQGTHVTVSS | low polyreactivity |
| QVQLVESGGGLVQAGGSLRLSCASSGFTFARYAMGWYRPAPGKEREFVAAIDKSGGSTYYADSVTGRFTISRDNAKNTVYLQMNSLKPEDTAVYYCAAGFGRVFSSIYGYWGQGTQVTVSS | high polyreactivity |
